Experimental data as given in patent US20230265183A1 (MABWELL SHANGHAI BIOSCIENCE, published 2023).
Read-outs that look alike come from different tables or passages of the source.

T1: human Nectin-4 (human, UniProt Q96NY8 32-510)
T1 construct: whole, on cells; Cell-surface target of the FACS, endocytosis and proliferation assays (CHO-huNectin4 S8 cells, BT474 cells); the assay field says which cells; also called huNectin4; PVRL4
T1 sequence (looked up): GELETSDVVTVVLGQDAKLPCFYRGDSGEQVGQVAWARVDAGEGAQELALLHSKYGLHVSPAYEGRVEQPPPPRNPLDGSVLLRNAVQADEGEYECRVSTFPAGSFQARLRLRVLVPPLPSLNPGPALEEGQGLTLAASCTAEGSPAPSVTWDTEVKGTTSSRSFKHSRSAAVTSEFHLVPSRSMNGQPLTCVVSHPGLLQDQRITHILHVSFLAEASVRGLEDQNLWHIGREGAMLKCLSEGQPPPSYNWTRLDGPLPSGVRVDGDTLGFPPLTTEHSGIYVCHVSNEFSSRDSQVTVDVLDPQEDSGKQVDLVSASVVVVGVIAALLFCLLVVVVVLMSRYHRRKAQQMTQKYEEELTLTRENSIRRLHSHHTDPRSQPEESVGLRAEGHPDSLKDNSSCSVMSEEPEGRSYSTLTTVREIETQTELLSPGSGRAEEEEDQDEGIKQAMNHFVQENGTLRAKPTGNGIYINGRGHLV

T2: His-tagged human NECTIN4 (human, UniProt Q96NY8 32-349)
T2 construct: Antigen of the BIAcore assay; also called antigen; recombinant NECTIN4 protein; not shown: His tag
T2 sequence: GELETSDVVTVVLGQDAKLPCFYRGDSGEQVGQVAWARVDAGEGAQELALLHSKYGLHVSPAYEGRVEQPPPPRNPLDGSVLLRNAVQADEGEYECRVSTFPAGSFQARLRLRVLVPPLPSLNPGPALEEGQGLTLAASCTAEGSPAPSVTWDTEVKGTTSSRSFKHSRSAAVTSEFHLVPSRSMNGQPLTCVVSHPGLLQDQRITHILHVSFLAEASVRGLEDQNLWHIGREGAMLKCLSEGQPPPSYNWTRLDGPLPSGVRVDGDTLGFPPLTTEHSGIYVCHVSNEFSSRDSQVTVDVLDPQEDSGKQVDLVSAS


Assays:
human Nectin-4 [1] = biological target: T1, human Nectin-4; test: FACS on BT474 cells
Procedure: (§1) The solutions of different concentrations were added to 384-well plates, 10 µl per well.
(§2) BT474 cells (breast cancer cells) expressing Nectin-4 on the cell surface were collected by centrifugation at 100 g at room temperature for 5 minutes, and then the cells were washed with PBS containing 0.5% BSA once and were centrifuged at 100 g at room temperature for 5 minutes. […] After incubation at 4° C. for 1 hour, fluorescently labeled goat anti-human IgG secondary antibody was added. After continued incubation at 4° C. for 1 hour, mean fluorescence readings of the cell populations were analyzed by a flow cytometer.
(§3) The experiment results of the binding of engineered humanized molecules of the present disclosure to BT474 cells by FACS assay are shown in panels 3B and 3C in FIG. 3 and Tables 6 and 7.

human Nectin-4 [2] = biological target: T1, human Nectin-4; test: cell-based or functional assay
human Nectin-4 [3] = biological target: T1, human Nectin-4; test: FACS on BT474 cells; remark: listed apart in the source
Procedure: as §1, §2, §3

His-tagged human NECTIN4 = biological target: T2, His-tagged human NECTIN4; test: SPR (BIAcore S200), antigen on CAP chip, antibody as analyte, 1:1 fit
Procedure: Interactions between the antibodies and the antigen were measured using a BIAcore instrument S200 from GE. Referring to the instructions provided in Biotin Capture Kit from GE Healthcare, the analytical channel and the control sample channel on CAP sensor chip were first coupled with antigen i.e. His-tagged human NECTIN4, then samples containing antibodies (diluted 3-fold from an initial concentration of 20 nM respectively and solutions of each antibody of 8 concentrations were obtained totally, and the concentration 0.741 nM was set to be repeated) were allowed to flow through both the analytical channel and the sample channel, and the photoreactions upon antibody-antigen binding were measured. Association constant Kon and dissociation constant Koff and affinity constant KD of each antibody were finally obtained by instrument software fitting (1:1 binding mode) analysis.

human Nectin-4 [4] = biological target: T1, human Nectin-4; test: cell-based or functional assay; remark: listed apart in the source

Binder	EC50 (human Nectin-4 [1])	Endocytosis efficiency (%) (human Nectin-4 [2])	EC50 (human Nectin-4 [3])	Kd (His-tagged human NECTIN4)	koff (His-tagged human NECTIN4)	kon (His-tagged human NECTIN4)	Endocytosis efficiency (%) (human Nectin-4 [4])
5M21 hz00 (antibody, human IgG1, kappa, V domains shown, Humanized) VH: QVQLVQSGAEVKKPGASVKVSCKASGYTFTTYYIHWVRQAPGQRLEWMGWIYPGNVNTKYNEKFKGRVTITRDTSASTAYMELSSLRSEDTAVYYCARGLYYFDYWGQGTLVTVSS VL: DIQMTQSPSSLSASVGDRVTITCKASQSVSNDVAWYQQKPGKVPKLLIYYASNRYTGVPSRFSGSGSGTDFTLTISSLQPEDVATYYCQQDYSSPYTFGGGTKVEIKR	52.2 µg/mL	54.8%					
5M21 hz10 (antibody, human IgG1, kappa, V domains shown, Humanized) VH: QVQLVQSGAEVKKPGASVKVSCKASGYTFTTYYIHWVRQAPGQRLEWMGWIYPGNVNTKYNEKFKGRVTITADKSASTAYMELSSLRSEDTAVYYCARGLYYFDYWGQGTLVTVSS VL: DIQMTQSPSSLSASVGDRVTITCKASQSVSNDVAWYQQKPGKVPKLLIYYASNRYTGVPSRFSGSGSGTDFTLTISSLQPEDVATYYCQQDYSSPYTFGGGTKVEIKR	44.3 µg/mL	64.8%					
chimeric antibody 5M21 xiIgG (antibody, V domains shown) VH: QVQLQQSGPELVKPGASVRITCKASGYTFTTYYIHWVKQRPGQGLEWIGWIYPGNVNTKYNEKFKGKATLTADKSSSTAYMQLSSLTSEDSAVYFCARGLYYFDYWGQGTTLTVSS VL: SIVMTQTPKFLLVSAGDRLTITCKASQSVSNDVAWYQQKPGQSPKLLIYYASNRYTGVPDRFTGSGYGTDFTFTISTVQAEDLAVYFCQQDYSSPYTFGGGTKLEIKR	46.1 µg/mL	56.9%					

Next, values leading:

EC50 (human Nectin-4 [1])	Endocytosis efficiency (%) (human Nectin-4 [2])	EC50 (human Nectin-4 [3])	Kd (His-tagged human NECTIN4)	koff (His-tagged human NECTIN4)	kon (His-tagged human NECTIN4)	Endocytosis efficiency (%) (human Nectin-4 [4])	Binder
44.5 µg/mL	64.4%						5M21 hz11 (antibody, human IgG1, kappa, V domains shown, Humanized) VH: QVQLVQSGAEVKKPGASVKVSCKASGYTFTTYYIHWVRQAPGQRLEWMGWIYPGNVNTKYNEKFKGRVTITADKSASTAYMELSSLRSEDTAVYYCARGLYYFDYWGQGTLVTVSS VL: DIQMTQSPSSLSASVGDRVTITCKASQSVSNDVAWYQQKPGKVPKLLIYYASNRYTGVPSRFSGSGSGTDFTLTISSLQPEDLATYFCQQDYSSPYTFGGGTKVEIKR
48.1 µg/mL	62.2%						5M21 hz01 (antibody, human IgG1, kappa, V domains shown, Humanized) VH: QVQLVQSGAEVKKPGASVKVSCKASGYTFTTYYIHWVRQAPGQRLEWMGWIYPGNVNTKYNEKFKGRVTITRDTSASTAYMELSSLRSEDTAVYYCARGLYYFDYWGQGTLVTVSS VL: DIQMTQSPSSLSASVGDRVTITCKASQSVSNDVAWYQQKPGKVPKLLIYYASNRYTGVPSRFSGSGSGTDFTLTISSLQPEDLATYFCQQDYSSPYTFGGGTKVEIKR
		0.077 µg/mL	1.01 nM	0.000798 s⁻¹	790000 M⁻¹ s⁻¹	54%	chimeric antibody 42D20 xiIgG (antibody, V domains shown) VH: QVQLKESGPGLVAPSQSLSISCTVSGFSLIDYGVSWIRQPPGKGLEWLGVIWGDGKIYYNSVLKSRLSISKDNSKSQVFLKMNSLQTDDTAMYYCAKQGGLLFYAMDYWGQGTSVTVSS VL: DIVMTQSPSSLAMSVGQRVTMNCKSSQSLLNSYSQKNYLAWYQQKPGQSPKLLIYFASTRESGVPDRFIGSGSETDFTLTISSVQAEDLADYFCQQHYNTPFTFGSGTKLEIKR
